Experimental data reported in patent US20120269827A1, “Compositions and Methods for Treatment of Ovarian, Peritoneal, and Fallopian Tube Cancer” (ImmunoGen, Inc., priority 2011, published 2012).
Entries after “also recorded” stand apart in the source; their conditions may differ.

What was measured:
[1] = test system: COLO 720E human ovarian carcinoma xenografts; assay: Anti-tumor effect of lorvotuzumab mertansine and gemcitabine in established subcutaneous COLO 720E xenografts (Example 1); type: in vivo, athymic nude mice; conditions: for % of tumor growth for treated vs. control (T/C) / anti-tumor activity rating (NCI standards): lorvotuzumab mertansine 11 mg/kg iv once weekly x3, gemcitabine 80 mg/kg ip every three days x4, combination same doses; for tumor regressions (any): six mice per group, single-agent groups
From the text: (§1) Mice were inoculated with human ovarian cancer cell lines and allowed to become established (average tumor size of about 100 mm^3) prior to treatment. Conjugate dosing is described based on antibody concentration. Efficacy is reported as both the % of tumor growth for treated vs. control (% T/C) and log cell kill (LCK) determined from the tumor doubling time and the tumor growth delay due to the treatment.
The anti-tumor effect of a combination of lorvotuzumab mertansine and gemcitabine was evaluated in an established subcutaneous xenograft model of ovarian cancer. Athymic nude mice were inoculated with COLO 720E human ovarian cancer cells (1×10^7 cells/animal) injected subcutaneously into the right flank. When the tumors reached about 110 mm^3 in size (10 days after tumor cell inoculation), the mice were randomly divided into four groups (six animals per group). A control group was treated with a single intravenous injection of PBS. A second group of mice were treated with the single agent lorvotuzumab mertansine at a dose of 11 mg/kg once weekly for three weeks (days 11, 18 and 25 post tumor cell inoculation) administered intravenously. The third group received single-agent gemcitabine administered intraperitoneally at a dose of 80 mg/kg every three days for a total of four injections (days 11, 14, 17 and 20 post tumor cell inoculation). A fourth group was treated with the combination of lorvotuzumab mertansine and gemcitabine with the same doses and routes of administration as for individual treatments. Tumor growth was monitored by measuring tumor size twice per week. Tumor size was calculated with the formula: length×width×height×½.

[2] = test system: COLO 720E human ovarian carcinoma xenografts; assay: Anti-tumor effect of lorvotuzumab mertansine and topotecan in established subcutaneous COLO 720E xenografts (Example 2); type: in vivo, athymic nude mice; parameters: key to anti-tumor activity rating (NCI standards): Percent T/C values less than or equal to 42% and/or LCK values of 0.5 or greater are considered active; percent T/C values less than 10% are considered highly active; conditions: for mice tumor free until the end of the study: day 120, six mice per group; for % of tumor growth for treated vs. control (T/C) / anti-tumor activity rating (NCI standards): lorvotuzumab mertansine 11 mg/kg iv once weekly x3, topotecan 0.7 mg/kg ip 5/2/5 schedule, combination same doses
From the text: Mice were inoculated with human ovarian cancer cell lines and allowed to become established (average tumor size of about 100 mm^3) prior to treatment. Conjugate dosing is described based on antibody concentration. Efficacy is reported as both the % of tumor growth for treated vs. control (% T/C) and log cell kill (LCK) determined from the tumor doubling time and the tumor growth delay due to the treatment. […] Athymic nude mice were inoculated with COLO 720E human ovarian cancer cells (1×10^7 cells/animal) injected subcutaneously into the right flank. When the tumors reached about 115 mm^3 in size (12 days after tumor cell inoculation), the mice were randomly divided into four groups (six animals per group). A control group was treated with a single intravenous injection of PBS. A second group of mice were treated with the single agent lorvotuzumab mertansine at a dose of 11 mg/kg once weekly for three weeks (days 12, 19 and 26 post tumor cell inoculation) administered intravenously. The third group received single-agent topotecan administered intraperitoneally at a dose of 0.7 mg/kg on a 5/2/5 schedule (daily×5, 2 days off, daily×5; days 12-16 and 19-23 post tumor cell inoculation). A fourth group was treated with the combination of lorvotuzumab mertansine and topotecan with the same doses and routes of administration as for individual treatments. Tumor growth was monitored by measuring tumor size twice per week. Tumor size was calculated with the formula: length×width×height×½.

[3] = test system: human xenograft preclinical models for ovarian cancer; conditions: no data given; cited from earlier work
[4] = test system: COLO 720E human ovarian carcinoma xenografts; assay: Anti-tumor effect of lorvotuzumab mertansine and DOXIL in established subcutaneous COLO 720E xenografts (Example 3); type: in vivo, athymic nude mice; parameters: key to anti-tumor activity rating (NCI standards): Percent T/C values less than or equal to 42% and/or LCK values of 0.5 or greater are considered active; percent T/C values less than 10% are considered highly active
From the text: as §1
The anti-tumor effect of a combination of lorvotuzumab mertansine and DOXIL® (i.e., PEGylated Liposomal Doxorubicin (PLD)) was evaluated in an established subcutaneous xenograft model of ovarian cancer. Athymic nude mice were inoculated with COLO 720E human ovarian cancer cells (1×10^7 cells/animal) injected subcutaneously into the right flank. When the tumors reached about 100 mm^3 in size (10 days after tumor cell inoculation), the mice were randomly divided into four groups (six animals per group). A control group was treated with a single intravenous injection of PBS. A second group of mice were treated with the single agent lorvotuzumab mertansine at a dose of 11 mg/kg once weekly for three weeks (days 10, 17 and […] post tumor cell inoculation) administered intravenously. The third group received single-agent DOXIL® at a dose of 11 mg/kg (single injection on day 10 post tumor cell inoculation) administered intravenously. A fourth group was treated with the combination of lorvotuzumab mertansine and DOXIL® with the same doses and routes of administration as for individual treatments. Tumor growth was monitored by measuring tumor size twice per week. Tumor size was calculated with the formula: length×width×height× 1/2.

[5] = lorvotuzumab mertansine 11 mg/kg iv once weekly x3, DOXIL 11 mg/kg iv single injection, combination same doses

Row | Molecule | % of tumor growth for treated vs. control (T/C) [1] | anti-tumor activity rating (NCI standards) [1] | tumor regressions (any) [1] | mice tumor free until the end of the study [2] | % of tumor growth for treated vs. control (T/C) [2] | anti-tumor activity rating (NCI standards) [2] | complete regression (CR) ([2]; six mice per group) | antitumor activity as a single agent [3] | partial regression (PR) ([2]; six mice per group) | mice remaining tumor free to the end of the study ([4]; day 118, six mice per group) | % of tumor growth for treated vs. control (T/C) [4, 5] | anti-tumor activity rating (NCI standards) [4, 5] | complete regressions (CR) ([4]; six mice per group)
1 | Nc1ccn([C@@H]2O[C@H](CO)[C@@H](O)C2(F)F)c(=O)n1 [gemcitabine, reference compound] | 77% | inactive | no regressions |  |  |  |  |  |  |  |  |  | 
2 | CC[C@@]1(O)C(=O)OCc2c1cc1n(c2=O)Cc2cc3c(CN(C)C)c(O)ccc3nc2-1 [topotecan, reference compound] |  |  |  | no tumor-free mice | 26% | active | one of six |  |  |  |  |  | 
3 | lorvotuzumab mertansine: antibody-drug conjugate comprised of the CD56-binding monoclonal antibody huN901, the SPP linker, and the maytansinoid cytotoxic agent DM1 (conjugate, chains of the INN, looked up, SPP linker, DM1 maytansinoid) VH: QVQLVESGGGVVQPGRSLRLSCAASGFTFSSFGMHWVRQAPGKGLEWVAYISSGSFTIYYADSVKGRFTISRDNSKNTLYLQMNSLRAEDTAVYYCARMRKGYAMDYWGQGTLVTVSS VL: DVVMTQSPLSLPVTLGQPASISCRSSQIIIHSDGNTYLEWFQQRPGQSPRRLIYKVSNRFSGVPDRFSGSGSGTDFTLKISRVEAEDVGVYYCFQGSHVPHTFGQGTKVEIK | 38% | modest antitumor activity; also recorded: active | no tumor regressions | no tumor-free mice | 59% | inactive |  | marked antitumor activity | one of six | one | 14% | active | one and one of six
